Assay results reported in the supplement of paper PMC10065799, “High-throughput profiling of sequence recognition by tyrosine kinases and SH2 domains using bacterial peptide display” (eLife, 2023).

What follows are sequences tested on AncSZ (assay: phosphorylation enrichment, bacterial display (enrichment ratio); higher = better substrate or ligand; peptides without Tyr show the background).
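Further: 11-residue human phosphosite peptides and single-mutation variants displayed on the E. coli surface, counted by deep sequencing, each peptide's frequency after selection divided by its frequency in the unselected input library; frequency after pTyr selection over input frequency; kinase dosed for 20-30% of maximal phosphorylation in three min.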

Sequence | phosphorylation enrichment
WFQTKYEELQI [KRT6B_Y360_YF] | 0.839
TNLVPYPRIHF [TUBA1A_Y262] | 0.501
FYDANCDGKEY [MAPRE2_Y162_Y162C] | 1.21
RQSTLYSFFPT [MSH6_Y8_K13T] | 1.35
IGEGTSGVVFK [CDK2_Y15_Y15S_YF] | 0.66
VSFDEYRFRSV [CFTR_Y515_YF] | 0.972
RIAFQYGVTDL [MYBPC3_Y340] | 1.41
KVQVSYKGETK [HSPA1A_Y107] | 0.608
DAVKHYMQFQK [CNGA2_Y395_R399Q] | 0.548
KPPPTYESEEE [BRD4_Y599] | 1.65
LVRAFYCERRW [CARD11_Y970_R975W] | 1.05
LMLVLYGRIFL [HTR1A_Y215_R220L] | 1.11
FMCKVYSDPQP [FGFR1_Y280] | 1.41
GSSSSYGQHGS [HRNR_Y517] | 0.376
YDDGKYVYVVT [RPS6KA3_Y488] | 1.25
LNERHYGGLTG [PGAM2_Y92] | 0.679
FFRDGHMPRQF [GSS_Y270_Y270H_YF] | 0.472
MTFQNYGQALF [FAM20C_Y279] | 0.901
DKATEYSQYMR [MAX_Y70_I71S] | 0.87
DPFHVYIKNRV [KCNE3_Y95_YF] | 1.27
KAIMIYVSSFF [ACTN4_Y260_T259I_YF] | 0.945
QPSALYEDRFL [ASS1_Y83_S79P_YF] | 1.4

Each sequence was assayed on c-Src in the same assay as above.

Sequence | phosphorylation enrichment
WFQTKYEELQI [KRT6B_Y360_YF] | 0.398
TNLVPYPRIHF [TUBA1A_Y262] | 0.392
FYDANCDGKEY [MAPRE2_Y162_Y162C] | 0.642
RQSTLYSFFPT [MSH6_Y8_K13T] | 7.3
IGEGTSGVVFK [CDK2_Y15_Y15S_YF] | 0.405
VSFDEYRFRSV [CFTR_Y515_YF] | 0.614
RIAFQYGVTDL [MYBPC3_Y340] | 0.879
KVQVSYKGETK [HSPA1A_Y107] | 0.352
DAVKHYMQFQK [CNGA2_Y395_R399Q] | 0.485
KPPPTYESEEE [BRD4_Y599] | 0.767
LVRAFYCERRW [CARD11_Y970_R975W] | 0.489
LMLVLYGRIFL [HTR1A_Y215_R220L] | 0.778
FMCKVYSDPQP [FGFR1_Y280] | 0.664
GSSSSYGQHGS [HRNR_Y517] | 0.256
YDDGKYVYVVT [RPS6KA3_Y488] | 1.3
LNERHYGGLTG [PGAM2_Y92] | 0.47
FFRDGHMPRQF [GSS_Y270_Y270H_YF] | 0.365
MTFQNYGQALF [FAM20C_Y279] | 0.489
DKATEYSQYMR [MAX_Y70_I71S] | 0.745
DPFHVYIKNRV [KCNE3_Y95_YF] | 0.31
KAIMIYVSSFF [ACTN4_Y260_T259I_YF] | 0.534
QPSALYEDRFL [ASS1_Y83_S79P_YF] | 1.41

What follows are sequences tested against Fyn (UniProt P06241) in the same assay as above.
Fyn, sequence (P06241 whole entry, looked up): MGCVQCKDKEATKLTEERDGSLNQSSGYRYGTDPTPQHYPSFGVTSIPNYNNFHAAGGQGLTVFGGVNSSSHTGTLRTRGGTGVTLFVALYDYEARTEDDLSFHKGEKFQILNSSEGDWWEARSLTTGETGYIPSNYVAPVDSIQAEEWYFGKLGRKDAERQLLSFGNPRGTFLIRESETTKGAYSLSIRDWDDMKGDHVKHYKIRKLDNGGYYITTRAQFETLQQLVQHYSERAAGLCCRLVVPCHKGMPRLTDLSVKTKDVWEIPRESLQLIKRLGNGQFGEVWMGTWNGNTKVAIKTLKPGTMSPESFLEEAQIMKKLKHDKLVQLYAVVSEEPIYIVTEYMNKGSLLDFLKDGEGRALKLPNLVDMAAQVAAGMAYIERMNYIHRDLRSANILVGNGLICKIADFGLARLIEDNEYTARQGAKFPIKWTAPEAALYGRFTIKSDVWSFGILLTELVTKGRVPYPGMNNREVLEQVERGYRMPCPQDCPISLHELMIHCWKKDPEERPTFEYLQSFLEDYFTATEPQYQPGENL

Sequence | phosphorylation enrichment
WFQTKYEELQI [KRT6B_Y360_YF] | 0.38
TNLVPYPRIHF [TUBA1A_Y262] | 0.378
FYDANCDGKEY [MAPRE2_Y162_Y162C] | 0.612
RQSTLYSFFPT [MSH6_Y8_K13T] | 7.89
IGEGTSGVVFK [CDK2_Y15_Y15S_YF] | 0.365
VSFDEYRFRSV [CFTR_Y515_YF] | 0.489
RIAFQYGVTDL [MYBPC3_Y340] | 0.522
KVQVSYKGETK [HSPA1A_Y107] | 0.426
DAVKHYMQFQK [CNGA2_Y395_R399Q] | 0.429
KPPPTYESEEE [BRD4_Y599] | 0.664
LVRAFYCERRW [CARD11_Y970_R975W] | 0.649
LMLVLYGRIFL [HTR1A_Y215_R220L] | 0.433
FMCKVYSDPQP [FGFR1_Y280] | 0.516
GSSSSYGQHGS [HRNR_Y517] | 0.376
YDDGKYVYVVT [RPS6KA3_Y488] | 1.43
LNERHYGGLTG [PGAM2_Y92] | 0.53
FFRDGHMPRQF [GSS_Y270_Y270H_YF] | 0.374
MTFQNYGQALF [FAM20C_Y279] | 0.458
DKATEYSQYMR [MAX_Y70_I71S] | 0.571
DPFHVYIKNRV [KCNE3_Y95_YF] | 0.415
KAIMIYVSSFF [ACTN4_Y260_T259I_YF] | 0.422
QPSALYEDRFL [ASS1_Y83_S79P_YF] | 1.77

Each sequence was assayed against FGFR1 (UniProt P11362) in the same assay as above.
FGFR1, sequence (P11362 whole entry, looked up): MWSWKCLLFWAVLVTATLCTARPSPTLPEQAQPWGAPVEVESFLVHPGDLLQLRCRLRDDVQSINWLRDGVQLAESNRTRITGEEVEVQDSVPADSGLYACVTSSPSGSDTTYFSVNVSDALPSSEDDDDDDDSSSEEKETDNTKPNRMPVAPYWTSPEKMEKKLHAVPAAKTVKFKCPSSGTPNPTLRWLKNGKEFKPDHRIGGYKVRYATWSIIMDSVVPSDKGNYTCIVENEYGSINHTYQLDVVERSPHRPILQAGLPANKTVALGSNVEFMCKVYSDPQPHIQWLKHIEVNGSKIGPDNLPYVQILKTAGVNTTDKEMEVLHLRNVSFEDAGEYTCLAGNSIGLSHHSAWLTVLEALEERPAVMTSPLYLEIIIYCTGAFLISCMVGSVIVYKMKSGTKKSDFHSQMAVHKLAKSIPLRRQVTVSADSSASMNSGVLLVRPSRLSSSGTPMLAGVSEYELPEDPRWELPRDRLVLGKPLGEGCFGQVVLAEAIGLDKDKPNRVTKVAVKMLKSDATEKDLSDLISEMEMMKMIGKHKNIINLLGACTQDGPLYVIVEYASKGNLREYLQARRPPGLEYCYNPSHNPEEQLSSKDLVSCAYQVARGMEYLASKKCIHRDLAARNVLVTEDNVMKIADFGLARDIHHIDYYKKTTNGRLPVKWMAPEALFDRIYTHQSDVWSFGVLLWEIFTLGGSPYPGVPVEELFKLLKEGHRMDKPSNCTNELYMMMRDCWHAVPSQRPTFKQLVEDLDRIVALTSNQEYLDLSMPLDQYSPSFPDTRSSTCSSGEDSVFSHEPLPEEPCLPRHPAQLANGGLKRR

Sequence | phosphorylation enrichment
WFQTKYEELQI [KRT6B_Y360_YF] | 0.428
TNLVPYPRIHF [TUBA1A_Y262] | 0.445
FYDANCDGKEY [MAPRE2_Y162_Y162C] | 0.497
RQSTLYSFFPT [MSH6_Y8_K13T] | 9.72
IGEGTSGVVFK [CDK2_Y15_Y15S_YF] | 0.339
VSFDEYRFRSV [CFTR_Y515_YF] | 0.515
RIAFQYGVTDL [MYBPC3_Y340] | 0.45
KVQVSYKGETK [HSPA1A_Y107] | 0.429
DAVKHYMQFQK [CNGA2_Y395_R399Q] | 0.348
KPPPTYESEEE [BRD4_Y599] | 0.618
LVRAFYCERRW [CARD11_Y970_R975W] | 0.575
LMLVLYGRIFL [HTR1A_Y215_R220L] | 0.851
FMCKVYSDPQP [FGFR1_Y280] | 0.543
GSSSSYGQHGS [HRNR_Y517] | 0.396
YDDGKYVYVVT [RPS6KA3_Y488] | 1.63
LNERHYGGLTG [PGAM2_Y92] | 0.607
FFRDGHMPRQF [GSS_Y270_Y270H_YF] | 0.392
MTFQNYGQALF [FAM20C_Y279] | 0.46
DKATEYSQYMR [MAX_Y70_I71S] | 0.531
DPFHVYIKNRV [KCNE3_Y95_YF] | 0.455
KAIMIYVSSFF [ACTN4_Y260_T259I_YF] | 0.446
QPSALYEDRFL [ASS1_Y83_S79P_YF] | 0.816
